Laboratory results taken from PMC6534667.

Molecular target: scFv PL2-6 (single-chain antibody variable fragment);Histone octamer H3 (H2A, H2B, H3, H4) (Mus musculus (mouse mAb PL2-6);Drosophila) (UniProt P84051+P02283+P02299+P84040)
Assay: ITC
Conditions: ITC: 20 mM Tris-HCl pH 7.4, 50 mM NaCl, 1 mM EDTA, 25 C; EMSA: 10 mM Tris pH 7.4, 1 mM EDTA, 30 mM NaCl, 1% Ficoll 6000, on ice 10 min, 5% acrylamide gel in …

147 bp Widom 601 DNA (W601)
Kd: 190 nM
